Tests used:
Isl1D4;Pou4f2 (Brn3b) = molecular target: T1, Isl1D4;Pou4f2 (Brn3b) (mouse;mouse, UniProt P61372;Q63934 146-349;1-411, |); assay: EMSA; ternary complex; EMSA: 20 mM Tris-HCl pH 7.5, 50 mM NaCl, 10 mM DTT, 1 mM EDTA, 5% glycerol, 200 ng dI/dC, 200 ng each protein in 20 ul, 4 C, 30 min; 8% PAGE, 1x TBE, 4 C; settings: protein: recombinant;recombinant; tags: His (C-terminal);His (C-terminal, pET-28a); copies: 1;1; (radiolabel, Klenow fill-in); 5' overhang 1 nt at both ends before fill-in
T1 sequence 1: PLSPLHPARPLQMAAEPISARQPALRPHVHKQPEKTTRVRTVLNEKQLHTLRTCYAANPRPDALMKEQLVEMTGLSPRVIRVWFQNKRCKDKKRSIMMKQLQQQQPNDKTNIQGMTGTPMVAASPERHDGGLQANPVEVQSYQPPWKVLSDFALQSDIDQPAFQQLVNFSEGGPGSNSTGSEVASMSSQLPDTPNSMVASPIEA
T1 sequence 2: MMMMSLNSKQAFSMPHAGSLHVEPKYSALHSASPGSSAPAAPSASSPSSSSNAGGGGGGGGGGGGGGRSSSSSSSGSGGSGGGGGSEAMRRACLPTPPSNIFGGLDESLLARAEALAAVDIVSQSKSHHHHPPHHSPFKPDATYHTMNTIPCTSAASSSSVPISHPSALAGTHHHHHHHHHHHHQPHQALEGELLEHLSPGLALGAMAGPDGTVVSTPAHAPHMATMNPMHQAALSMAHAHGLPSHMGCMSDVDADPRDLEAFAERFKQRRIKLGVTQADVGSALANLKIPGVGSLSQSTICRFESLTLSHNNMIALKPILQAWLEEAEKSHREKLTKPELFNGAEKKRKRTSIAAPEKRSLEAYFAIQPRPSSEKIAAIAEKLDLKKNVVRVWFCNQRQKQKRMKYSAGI

Pou4f2D4;Isl1 = molecular target: T2, Pou4f2D4;Isl1 (mouse;mouse, UniProt Q63934;P61372 169-411;1-349, |); assay: as above; settings: protein: recombinant;recombinant; tags: His (C-terminal);His (C-terminal, pET-28a); copies: 1;1; (radiolabel, Klenow fill-in); 5' overhang 1 nt at both ends before fill-in
T2 sequence 1: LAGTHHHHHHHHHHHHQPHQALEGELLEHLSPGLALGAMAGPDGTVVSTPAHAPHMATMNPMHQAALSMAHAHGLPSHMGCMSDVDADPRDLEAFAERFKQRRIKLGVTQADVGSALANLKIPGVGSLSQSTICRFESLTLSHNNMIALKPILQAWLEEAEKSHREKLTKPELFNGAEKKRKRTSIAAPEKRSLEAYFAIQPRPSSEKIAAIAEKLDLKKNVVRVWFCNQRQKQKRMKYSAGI
T2 sequence 2: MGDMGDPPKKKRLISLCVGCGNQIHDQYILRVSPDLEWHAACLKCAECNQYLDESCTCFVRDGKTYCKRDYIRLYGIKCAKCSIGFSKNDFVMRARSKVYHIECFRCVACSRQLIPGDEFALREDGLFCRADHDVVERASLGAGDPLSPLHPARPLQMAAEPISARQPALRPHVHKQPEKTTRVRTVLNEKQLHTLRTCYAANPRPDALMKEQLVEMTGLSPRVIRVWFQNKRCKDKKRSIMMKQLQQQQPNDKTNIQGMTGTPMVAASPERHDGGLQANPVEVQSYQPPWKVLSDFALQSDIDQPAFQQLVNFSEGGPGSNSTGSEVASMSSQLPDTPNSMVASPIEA

Pou4f2 (Brn3b);Isl1 [1] = molecular target: T3, Pou4f2 (Brn3b);Isl1 (mouse;mouse, UniProt Q63934;P61372 1-411;1-349, |); assay: as above; settings: protein: recombinant;recombinant; tags: His (C-terminal, pET-28a);His (C-terminal, pET-28a); copies: 1;1; (radiolabel, Klenow fill-in); 5' overhang 1 nt at both ends before fill-in
T3 sequence 1: T1 sequence 2
T3 sequence 2: T2 sequence 2

Isl1D5;Pou4f2 (Brn3b) = molecular target: T4, Isl1D5;Pou4f2 (Brn3b) (mouse;mouse, UniProt P61372;Q63934 74-349;1-411, |); assay: as above; settings: protein: recombinant;recombinant; tags: His (C-terminal);His (C-terminal, pET-28a); copies: 1;1; (radiolabel, Klenow fill-in); 5' overhang 1 nt at both ends before fill-in
T4 sequence 1: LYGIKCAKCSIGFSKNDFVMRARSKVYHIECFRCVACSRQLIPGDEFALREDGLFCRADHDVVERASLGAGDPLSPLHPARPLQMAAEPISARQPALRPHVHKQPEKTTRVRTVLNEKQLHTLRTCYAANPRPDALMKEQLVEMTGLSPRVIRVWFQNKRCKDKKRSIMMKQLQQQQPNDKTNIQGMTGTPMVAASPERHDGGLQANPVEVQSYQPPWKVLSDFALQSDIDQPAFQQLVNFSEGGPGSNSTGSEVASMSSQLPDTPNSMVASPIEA
T4 sequence 2: T1 sequence 2

Isl1D3;Pou4f2 (Brn3b) = molecular target: T5, Isl1D3;Pou4f2 (Brn3b) (mouse;mouse, UniProt P61372;Q63934 170-349;1-411, |); assay: as above; settings: protein: recombinant;recombinant; tags: His (C-terminal);His (C-terminal, pET-28a); copies: 1;1; (radiolabel, Klenow fill-in); 5' overhang 1 nt at both ends before fill-in
T5 sequence 1: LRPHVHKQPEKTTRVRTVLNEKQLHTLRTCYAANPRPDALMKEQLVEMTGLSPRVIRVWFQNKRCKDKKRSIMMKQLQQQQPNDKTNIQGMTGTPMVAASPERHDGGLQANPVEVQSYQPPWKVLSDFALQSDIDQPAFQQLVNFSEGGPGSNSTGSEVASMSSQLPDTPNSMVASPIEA
T5 sequence 2: T1 sequence 2

Pou4f2D5;Isl1 [2] = molecular target: T6, Pou4f2D5;Isl1 (mouse;mouse, UniProt Q63934;P61372 125-411;1-349, |); assay: as above; settings: protein: recombinant;recombinant, tags: His (C-terminal);His (C-terminal, pET-28a), copies: 1;1
T6 sequence 1: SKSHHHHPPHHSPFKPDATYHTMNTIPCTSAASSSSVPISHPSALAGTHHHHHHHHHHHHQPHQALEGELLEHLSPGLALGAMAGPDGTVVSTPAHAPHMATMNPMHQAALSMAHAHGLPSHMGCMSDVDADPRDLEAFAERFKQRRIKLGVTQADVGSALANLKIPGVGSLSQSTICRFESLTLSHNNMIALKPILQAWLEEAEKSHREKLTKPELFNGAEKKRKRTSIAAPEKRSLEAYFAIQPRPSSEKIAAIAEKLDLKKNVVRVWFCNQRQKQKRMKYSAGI
T6 sequence 2: T2 sequence 2

Pou4f2 (Brn3b);Isl1 [3] = molecular target: T3, Pou4f2 (Brn3b);Isl1; assay: EMSA; EMSA: 20 mM Tris-HCl pH 7.5, 50 mM NaCl, 10 mM DTT, 1 mM EDTA, 5% glycerol, 200 ng dI/dC, 200 ng each protein in 20 ul, 4 C, 30 min; 8% PAGE, 1x TBE, 4 C; settings: protein: recombinant;recombinant; tags: His (C-terminal, pET-28a);His (C-terminal, pET-28a); copies: 1;1; (radiolabel, Klenow fill-in); 5' overhang 1 nt at both ends before fill-in
Pou4f2D5;Isl1 [4] = molecular target: T6, Pou4f2D5;Isl1; assay: as above; settings: protein: recombinant;recombinant, tags: His (C-terminal);His (C-terminal, pET-28a), copies: 1;1
[5] = (radiolabel, Klenow fill-in), 5' overhang 1 nt at both ends before fill-in

B1: CBRN3(W) (dsDNA)
DNA 1: GATCTCTCCTGCATAATTAATTACCCCCGGAT
DNA 2: GATCCGGGGGTAATTAATTATGCAGGAGAGAT
B1: binds (Isl1D4;Pou4f2 (Brn3b)); binds (Pou4f2D4;Isl1); binds (Pou4f2 (Brn3b);Isl1 [1]). B1: binds (Isl1D5;Pou4f2 (Brn3b)); binds (Isl1D3;Pou4f2 (Brn3b)); binds (Pou4f2D5;Isl1 [2]; [5]).

B2: CBRN3(M) (dsDNA)
DNA 1: GATCTCTCCTGCGCGGTTGACTACCCCCGGAT
DNA 2: GATCCGGGGGTAGTCAACCGCGCAGGAGAGAT
B2: no binding (Pou4f2 (Brn3b);Isl1 [3]).

B3: SBRN3(W) (dsDNA)
DNA 1: GCACACGACCCAATGAATTAATAACCGGGCTG
DNA 2: GCAGCCCGGTTATTAATTCATTGGGTCGTGTG
B3: binds (Isl1D4;Pou4f2 (Brn3b)); binds (Pou4f2D4;Isl1); binds (Pou4f2 (Brn3b);Isl1 [1]). B3: binds (Isl1D5;Pou4f2 (Brn3b)); binds (Isl1D3;Pou4f2 (Brn3b)); binds (Pou4f2D5;Isl1 [2]; [5]).

B4: EBF3(W) (dsDNA)
DNA 1: GTGCGTTAATATTTTAATTAATCGGGAAAA
DNA 2: TTTTCCCGATTAATTAAAATATTAACGCAC
B4: binds (Pou4f2D5;Isl1 [2]; (radiolabel, Klenow), blunt).

B5: EBF3(M) (dsDNA)
DNA 1: GTGCGTTGCTATTTTCGTTGCTCGGGAAAA
DNA 2: TTTTCCCGAGCAACGAAAATAGCAACGCAC
B5: no binding (Pou4f2D5;Isl1 [4]; (radiolabel, Klenow), blunt).

B6: SBRN3(M) (dsDNA)
DNA 1: GCACACGACCCAGCGCGTTGACAACCGGGCTG
DNA 2: GCAGCCCGGTTGTCAACGCGCTGGGTCGTGTG
B6: no binding (Pou4f2 (Brn3b);Isl1 [3]).

B7: IRX6(W) (dsDNA)
DNA 1: GTACTACTAATTAATTAATTGCAAACATTTC
DNA 2: GGAAATGTTTGCAATTAATTAATTAGTAGTA
B7: binds (Pou4f2D5;Isl1 [2]; [5]).

B8: IRX6(M) (dsDNA)
DNA 1: TACTACTGCTTCGTTGCTTGCAAACATTTC
DNA 2: GGAAATGTTTGCAAGCAACGAAGCAGTAGTA
B8: no binding (Pou4f2D5;Isl1 [4]; (radiolabel, Klenow fill-in), one end blunt, lower strand 5' overhang 1 nt before fill-in).

From PMC3958441, “Isl1 and Pou4f2 Form a Complex to Regulate Target Genes in Developing Retinal Ganglion Cells” (PLoS ONE, 2014)
